In experiment [1] the target is T1, human native CD3 on live cells (HuT78, Jurkat) (human, UniProt P07766 23-207; P09693 23-182; P04234 22-171).
T1 construct: whole, on cells; also called human CD3
Nature of the experiment: flow cytometry on live HuT78 cells, mouse anti-human IgG secondary, MFI. Here is the method: (§1) For affinity determination, antibodies were captured by anti-human Fc surface, and used in the affinity-assay based on surface plasmon resonance (SPR) technology. The binding activity of humanized sp34 to bind native CD3 on live cells was evaluated using HuT78 cells in a FACS based assay. Live HuT78 cells were seeded in 96-well plate, and were incubated with a series of dilutions of chimeric or humanized sp34. Mouse anti-Human IgG was used as second antibody to detect antibody binding to the cell surface. EC50 values for dose-dependent binding to human native CD3 were determined by fitting the dose-response data to the four-parameter logistic model with GraphPad Prism.

Experiment [2] addresses T1, human native CD3 on live cells (HuT78, …). Kind of experiment: FACS, HuT78 cells, Test 1. Here is the method:
as §1

Experiment [3] has the same target. Nature of the experiment: FACS, HuT78 cells, Test 2. Here is the method:
as §1

For experiment [4], the target named is T2, CD3ε (SPR analyte) (UniProt P07766 23-126, limits assumed). Kind of experiment: SPR, scFv-Fc.
T2 sequence (P07766 23-126 limits assumed): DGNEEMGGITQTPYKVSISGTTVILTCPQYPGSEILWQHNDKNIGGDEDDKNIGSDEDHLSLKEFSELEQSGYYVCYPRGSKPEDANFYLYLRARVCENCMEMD
Experiment [5] concerns the target T1, human native CD3 on live cells (HuT78, …). Kind of experiment: flow cytometry on live HuT78 cells, mouse anti-human IgG secondary, MFI. Here is the method: as §1
This is another data set of the same source.

Experiment [6] has the same target. Nature of the experiment: FACS, HuT78 cells. Here is the method: as §1
Experiment [7] concerns the target T2, CD3ε (SPR analyte). Kind of experiment: SPR.
Experiment [8] has as its target T1, human native CD3 on live cells (HuT78, …). Nature of the experiment: flow cytometry on live HuT78 cells, mouse anti-human IgG secondary, MFI. Here is the method:
as §1
This is another data set of the same source.

Experiment [9] shares this target. Kind of experiment: FACS, HuT78 cells, Test 3. Here is the method: as §1

Changes are numbered by the printed parent chain. Numbers in names are those of the source. Like-named read-outs stand apart in the source and are kept apart here.

T1 sequence (P07766 23-207, chain 1 of 3): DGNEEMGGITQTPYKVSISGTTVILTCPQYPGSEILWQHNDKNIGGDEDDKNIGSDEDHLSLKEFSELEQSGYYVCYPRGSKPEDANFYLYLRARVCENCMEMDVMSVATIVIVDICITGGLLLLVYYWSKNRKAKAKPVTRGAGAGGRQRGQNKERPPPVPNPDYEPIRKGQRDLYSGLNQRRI
T1 sequence (P09693 23-182, chain 2 of 3): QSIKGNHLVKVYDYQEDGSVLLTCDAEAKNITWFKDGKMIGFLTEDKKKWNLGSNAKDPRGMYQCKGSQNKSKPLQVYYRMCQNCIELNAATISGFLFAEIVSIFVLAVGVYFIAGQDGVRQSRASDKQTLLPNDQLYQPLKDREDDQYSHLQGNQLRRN
T1 sequence (P04234 22-171, chain 3 of 3): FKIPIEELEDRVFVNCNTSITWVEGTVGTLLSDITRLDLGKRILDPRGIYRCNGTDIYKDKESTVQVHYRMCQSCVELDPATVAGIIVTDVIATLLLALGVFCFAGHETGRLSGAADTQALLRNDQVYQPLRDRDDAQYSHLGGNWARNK

B1: humanized scFv BG562P (scFv-Fc) (Fc fusion)
scFv: EVQLVESGGGLVQPGGSLRLSCAASGFTFNTYAMNWVRQAPGKGLEWVARIRSKYNNYATYYADSVKDRFTISRDDAKNSLYLQMNSLRAEDTAVYYCVRHGNFGNSYVSWFAYWGQGTLVTVSSGGGGSGGGGSGGGGSEIVVTQSPATLSVSPGERATLSCRSSTGAVTTSNYANWVQQKPGQAPRGLIGGTNKRAPGIPARFSGSLSGDEATLTISSLQSEDFAVYYCALWYSNLWVFGGGTKVEIK
notes: BG561P with L4V in VL; not shown: human IgG1 Fc region, scFv fused to its N-terminus
For the molecule B1, the “EC50 (read off the curve)” value in [1] is about 0.3 µg/mL. Further, a half-maximal response in experiment [2] (EC50) required 2.85 nM. The molecule also displayed an EC50 in experiment [3] of 2.85 nM. In experiment [4], this molecule registered a Kd of 3.16 nM, a koff of 0.000367 s⁻¹ and an on-rate constant (kon) of 116000 M⁻¹ s⁻¹. The “EC50 (read off the curve)” value in experiment [5] is about 0.1 µg/mL.

B2: humanized sp34 scFv BG561P (scFv-Fc) (Fc fusion)
scFv: B1 scFv with V144L
notes: scFv (VH-3xG4S-VK) fused to N-terminus of a human IgG1 Fc region; also called scFv-ized BG56P; not shown: human IgG1 Fc region, scFv fused to its N-terminus
As for B2, the “EC50 (read off the curve)” value in experiment [1] is about 0.5 µg/mL; in [5], about 0.3 µg/mL. Moreover, the results for the concentration for a half-maximal effect (EC50) in experiment [2] and in experiment [6] were 2.46 nM and 4.35 nM, respectively. For the same molecule, the values for the equilibrium dissociation constant (Kd) in experiment [7] and in [4] were 9.08 nM and 4.98 nM, respectively. In addition, the off-rate constant (koff) in experiment [7] stood at 0.000401 s⁻¹; in experiment [4] it was 0.00036 s⁻¹. In addition, the kon was 44200 M⁻¹ s⁻¹ in [7] and 72200 M⁻¹ s⁻¹ in experiment [4].

B3: humanized scFv BG564P (scFv-Fc) (Fc fusion)
scFv: B1 scFv with N30S, A49G, D68G, N106S
notes: BG563P with N30S and N100S in VH; not shown: human IgG1 Fc region, scFv fused to its N-terminus
As to B3, in experiment [8], the “EC50 (read off the curve)” value was about 0.1 µg/mL. Further, in experiment [4], the Kd was 1.39 nM, the koff amounted to 0.000576 s⁻¹ and the on-rate constant (kon) worked out at 414000 M⁻¹ s⁻¹. Moreover, the EC50 in [9] is 1.23 nM.

B4: humanized scFv BG563P (scFv-Fc) (Fc fusion)
scFv: B1 scFv with A49G, D68G
notes: BG561P with L4V in VL and A49G, D65G in VH; not shown: human IgG1 Fc region, scFv fused to its N-terminus
For the molecule B4, the “EC50 (read off the curve)” value in [1] was about 0.1 µg/mL. The “EC50 (read off the curve)” value in [8] was about 0.1 µg/mL. Further, the EC50 in [3] came to 0.94 nM. In experiment [4], the Kd was 1.57 nM, the koff was 0.000772 s⁻¹ and the kon was determined as 493000 M⁻¹ s⁻¹. In addition, it took 0.94 nM to reach a half-maximal effect in experiment [9] (EC50).

(Values after patent US20240301062A1 (BEIGENE SWITZERLAND, published 2024).)
